Data from the supplement of paper PMC5998384.

How the values were obtained:
HeLa Kyoto [1] = experiment: thermal stability score vs G1/S (z-score of summed log2 fold changes over temperatures); higher = more thermally stable than in G1/S
HeLa Kyoto [2] = experiment: melting temperature (median over replicates), in situ; higher = more thermally stable
HeLa Kyoto [3] = experiment: solubility change mitosis vs G1/S (difference of NP-40 vs SDS log2 ratios) (log2 ratio difference); higher = more soluble in mitosis
HeLa Kyoto [4] = experiment: solubility in G1/S (NP-40 vs SDS abundance) (log2 ratio); higher = more soluble; details: cell cycle stage: G1/S
[5] = cell cycle stage: early G1 (4.5 h after nocodazole release)
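Throughout, for melting temperature (median over replicates), in situ: HeLa Kyoto cells synchronized by double thymidine or nocodazole block, proteins quantified by TMT10plex mass spectrometry, three independent biological replicates.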
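Throughout, for solubility change mitosis vs G1/S (difference of NP-40 vs SDS log2 ratios): synchronized HeLa Kyoto cells (double thymidine block for G1/S, nocodazole release for mitosis), protein amounts in NP-40 versus SDS lysates quantified by mass spectrometry, three biological replicates.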
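Throughout, for solubility in G1/S (NP-40 vs SDS abundance): HeLa Kyoto cells arrested at G1/S by double thymidine block, proteins quantified by TMT10plex mass spectrometry in mild NP-40 versus SDS extracts, three biological replicates.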
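Throughout, for thermal stability score vs G1/S (z-score of summed log2 fold changes over temperatures): synchronized HeLa Kyoto cells, proteins quantified by TMT10plex mass spectrometry, three biological replicates, mitosis taken 0.5 h after nocodazole release, G1/S directly after double thymidine block.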

Sequence | thermal stability score (HeLa Kyoto [1]; [5]) | thermal stability score (HeLa Kyoto [1]; cell cycle stage: mitosis) | melting temperature (HeLa Kyoto [2]; cell cycle stage: G1/S) [°C] | melting temperature (HeLa Kyoto [2]; cell cycle stage: mitosis) [°C] | solubility change mitosis (log2) (HeLa Kyoto [3]) | solubility in G1/S (log2) (HeLa Kyoto [4])
MHPRRPDGFDGLGYRGGARDEQGFGGAFPARSFSTGSDLGHWVTTPPDIPGSRNLHWGEKSPPYGVPTTSTPYEGPTEEPFSSGGGGSVQGQSSEQLNRFAGFGIGLASLFTENVLAHPCIVLRRQCQVNYHAQHYHLTPFTVINIMYSFNKTQGPRALWKGMGSTFIVQGVTLGAEGIISEFTPLPREVLHKWSPKQIGEHLLLKSLTYVVAMPFYSASLIETVQSEIIRDNTGILECVKEGIGRVIGMGVPHSKRLLPLLSLIFPTVLHGVLHYIISSVIQKFVLLILKRKTYNSHLAESTSPVQSMLDAYFPELIANFAASLCSDVILYPLETVLHRLHIQGTRTIIDNTDLGYEVLPINTQYEGMRDCINTIRQEEGVFGFYKGFGAVIIQYTLHAAVLQITKIIYSTLLQNNI [SLC25A46] | -2.69 | -1.76 | 54.2 | 53.8 | -0.0414 | 0.0119
MHRKKVDNRIRILIENGVAERQRSLFVVVGDRGKDQVVILHHMLSKATVKARPSVLWCYKKELGFSSHRKKRMRQLQKKIKNGTLNIKQDDPFELFIAATNIRYCYYNETHKILGNTFGMCVLQDFEALTPNLLARTVETVEGGGLVVILLRTMNSLKQLYTVTMDVHSRYRTEAHQDVVGRFNERFILSLASCKKCLVIDDQLNILPISSHVATMEALPPQTPDESLGPSDLELRELKESLQDTQPVGVLVDCCKTLDQAKAVLKFIEGISEKTLRSTVALTAARGRGKSAALGLAIAGAVAFGYSNIFVTSPSPDNLHTLFEFVFKGFDALQYQEHLDYEIIQSLNPEFNKAVIRVNVFREHRQTIQYIHPADAVKLGQAELVVIDEAAAIPLPLVKSLLGPYLVFMASTINGYEGTGRSLSLKLIQQLRQQSAQSQVSTTAENKTTTTARLASARTLYEVSLQESIRYAPGDAVEKWLNDLLCLDCLNITRIVSGCPLPEACELYYVNRDTLFCYHKASEVFLQRLMALYVASHYKNSPNDLQMLSDAPAHHLFCLLPPVPPTQNALPEVLAVIQVCLEGEISRQSILNSLSRGKKASGDLIPWTVSEQFQDPDFGGLSGGRVVRIAVHPDYQGMGYGSRALQLLQMYYEGRFPCLEEKVLETPQEIHTVSSEAVSLLEEVITPRKDLPPLLLKLNERPAERLDYLGVSYGLTPRLLKFWKRAGFVPVYLRQTPNDLTGEHSCIMLKTLTDEDEADQGGWLAAFWKDFRRRFLALLSYQFSTFSPSLALNIIQNRNMGKPAQPALSREELEALFLPYDLKRLEMYSRNMVDYHLIMDMIPAISRIYFLNQLGDLALSAAQSALLLGIGLQHKSVDQLEKEIELPSGQLMGLFNRIIRKVVKLFNEVQEKAIEEQMVAAKDVVMEPTMKTLSDDLDEAAKEFQEKHKKEVGKLKSMDLSEYIIRGDDEEWNEVLNKAGPNASIISLKSDKKRKLEAKQEPKQSKKLKNRETKNKKDMKLKRKK [NAT10] | 1.83 | 1.3 | 49.8 | 52.1 | 0.692 | -2.26
MIEQQKRKGPELPLVPVKRQRHELLLGAGSGPGAGQQQATPGALLQAGPPRCSSLQAPIMLLSGHEGEVYCCKFHPNGSTLASAGFDRLILLWNVYGDCDNYATLKGHSGAVMELHYNTDGSMLFSASTDKTVAVWDSETGERVKRLKGHTSFVNSCYPARRGPQLVCTGSDDGTVKLWDIRKKAAIQTFQNTYQVLAVTFNDTSDQIISGGIDNDIKVWDLRQNKLTYTMRGHADSVTGLSLSSEGSYLLSNAMDNTVRVWDVRPFAPKERCVKIFQGNVHNFEKNLLRCSWSPDGSKIAAGSADRFVYVWDTTSRRILYKLPGHAGSINEVAFHPDEPIIISASSDKRLYMGEIQ [SNRNP40] | -0.469 | -0.465 | 49.9 | 50.7 | 0.366 | -1.09
MIRNGRGAAGGAEQPGPGGRRAVRVWCDGCYDMVHYGHSNQLRQARAMGDYLIVGVHTDEEIAKHKGPPVFTQEERYKMVQAIKWVDEVVPAAPYVTTLETLDKYNCDFCVHGNDITLTVDGRDTYEEVKQAGRYRECKRTQGVSTTDLVGRMLLVTKAHHSSQEMSSEYREYADSFGKCPGGRNPWTGVSQFLQTSQKIIQFASGKEPQPGETVIYVAGAFDLFHIGHVDFLEKVHRLAERPYIIAGLHFDQEVNHYKGKNYPIMNLHERTLSVLACRYVSEVVIGAPYAVTAELLSHFKVDLVCHGKTEIIPDRDGSDPYQEPKRRGIFRQIDSGSNLTTDLIVQRIITNRLEYEARNQKKEAKELAFLEAARQQAAQPLGERDGDF [PCYT2] | 0.197 | 0.0948 | 54.1 | 54.9 | -0.199 | 0.000861
MITSELPVLQDSTNETTAHSDAGSELEETEVKGKRKRGRPGRPPSTNKKPRKSPGEKSRIEAGIRGAGRGRANGHPQQNGEGEPVTLFEVVKLGKSAMQSVVDDWIESYKQDRDIALLDLINFFIQCSGCRGTVRIEMFRNMQNAEIIRKMTEEFDEDSGDYPLTMPGPQWKKFRSNFCEFIGVLIRQCQYSIIYDEYMMDTVISLLTGLSDSQVRAFRHTSTLAAMKLMTALVNVALNLSIHQDNTQRQYEAERNKMIGKRANERLELLLQKRKELQENQDEIENMMNSIFKGIFVHRYRDAIAEIRAICIEEIGVWMKMYSDAFLNDSYLKYVGWTLHDRQGEVRLKCLKALQSLYTNRELFPKLELFTNRFKDRIVSMTLDKEYDVAVEAIRLVTLILHGSEEALSNEDCENVYHLVYSAHRPVAVAAGEFLHKKLFSRHDPQAEEALAKRRGRNSPNGNLIRMLVLFFLESELHEHAAYLVDSLWESSQELLKDWECMTELLLEEPVQGEEAMSDRQESALIELMVCTIRQAAEAHPPVGRGTGKRVLTAKERKTQIDDRNKLTEHFIITLPMLLSKYSADAEKVANLLQIPQYFDLEIYSTGRMEKHLDALLKQIKFVVEKHVESDVLEACSKTYSILCSEEYTIQNRVDIARSQLIDEFVDRFNHSVEDLLQEGEEADDDDIYNVLSTLKRLTSFHNAHDLTKWDLFGNCYRLLKTGIEHGAMPEQIVVQALQCSHYSILWQLVKITDGSPSKEDLLVLRKTVKSFLAVCQQCLSNVNTPVKEQAFMLLCDLLMIFSHQLMTGGREGLQPLVFNPDTGLQSELLSFVMDHVFIDQDEENQSMEGDEEDEANKIEALHKRRNLLAAFSKLIIYDIVDMHAAADIFKHYMKYYNDYGDIIKETLSKTRQIDKIQCAKTLILSLQQLFNELVQEQGPNLDRTSAHVSGIKELARRFALTFGLDQIKTREAVATLHKDGIEFAFKYQNQKGQEYPPPNLAFLEVLSEFSSKLLRQDKKTVHSYLEKFLTEQMMERREDVWLPLISYRNSLVTGGEDDRMSVNSGSSSSKTSSVRNKKGRPPLHKKRVEDESLDNTWLNRTDTMIQTPGPLPAPQLTSTVLRENSRPMGDQIQEPESEHGSEPDFLHNPQMQISWLGQPKLEDLNRKDRTGMNYMKVRTGVRHAVRGLMEEDAEPIFEDVMMSSRSQLEDMNEEFEDTMVIDLPPSRNRRERAELRPDFFDSAAIIEDDSGFGMPMF [STAG1] | -0.0959 | -1.71 | 52 | 50.6 | 0.0363 | -0.226
MIVQRVVLNSRPGKNGNPVAENFRMEEVYLPDNINEGQVQVRTLYLSVDPYMRCRMNEDTGTDYITPWQLSQVVDGGGIGIIEESKHTNLTKGDFVTSFYWPWQTKVILDGNSLEKVDPQLVDGHLSYFLGAIGMPGLTSLIGIQEKGHITAGSNKTMVVSGAAGACGSVAGQIGHFLGCSRVVGICGTHEKCILLTSELGFDAAINYKKDNVAEQLRESCPAGVDVYFDNVGGNISDTVISQMNENSHIILCGQISQYNKDVPYPPPLSPAIEAIQKERNITRERFLVLNYKDKFEPGILQLSQWFKEGKLKIKETVINGLENMGAAFQSMMTGGNIGKQIVCISEEISL [PTGR2] | 0.0557 | -0.682 | 50.5 | 50.6 | -0.0529 | 0.0876
MKAVVQRVTRASVTVGGEQISAIGRGICVLLGISLEDTQKELEHMVRKILNLRVFEDESGKHWSKSVMDKQYEILCVSQFTLQCVLKGNKPDFHLAMPTEQAEGFYNSFLEQLRKTYRPELIKDGKFGAYMQVHIQNDGPVTIELESPAPGTATSDPKQLSKLEKQQQRKEKTRAKGPSESSKERNTPRKEDRSASSGAEGDVSSEREP [DTD1] | 2.15 | 0.509 | 58.3 | 57.5 | 0.00349 | 0.119
MKFAEHLSAHITPEWRKQYIQYEAFKDMLYSAQDQAPSVEVTDEDTVKRYFAKFEEKFFQTCEKELAKINTFYSEKLAEAQRRFATLQNELQSSLDAQKESTGVTTLRQRRKPVFHLSHEERVQHRNIKDLKLAFSEFYLSLILLQNYQNLNFTGFRKILKKHDKILETSRGADWRVAHVEVAPFYTCKKINQLISETEAVVTNELEDGDRQKAMKRLRVPPLGAAQPAPAWTTFRVGLFCGIFIVLNITLVLAAVFKLETDRSIWPLIRIYRGGFLLIEFLFLLGINTYGWRQAGVNHVLIFELNPRSNLSHQHLFEIAGFLGILWCLSLLACFFAPISVIPTYVYPLALYGFMVFFLINPTKTFYYKSRFWLLKLLFRVFTAPFHKVGFADFWLADQLNSLSVILMDLEYMICFYSLELKWDESKGLLPNNSEESGICHKYTYGVRAIVQCIPAWLRFIQCLRRYRDTKRAFPHLVNAGKYSTTFFMVTFAALYSTHKERGHSDTMVFFYLWIVFYIISSCYTLIWDLKMDWGLFDKNAGENTFLREEIVYPQKAYYYCAIIEDVILRFAWTIQISITSTTLLPHSGDIIATVFAPLEVFRRFVWNFFRLENEHLNNCGEFRAVRDISVAPLNADDQTLLEQMMDQDDGVRNRQKNRSWKYNQSISLRRPRLASQSKARDTKVLIEDTDDEANT [XPR1] | -0.783 | -1.57 | 52.2 | 51.1 | -0.121 | -0.193
MKGLYFQQSSTDEEITFVFQEKEDLPVTEDNFVKLQVKACALSQINTKLLAEMKMKKDLFPVGREIAGIVLDVGSKVSFFQPDDEVVGILPLDSEDPGLCEVVRVHEHYLVHKPEKVTWTEAAGSIRDGVRAYTALHYLSHLSPGKSVLIMDGASAFGTIAIQLAHHRGAKVISTACSLEDKQCLERFRPPIARVIDVSNGKVHVAESCLEETGGLGVDIVLDAGVRLYSKDDEPAVKLQLLPHKHDIITLLGVGGHWVTTEENLQLDPPDSHCLFLKGATLAFLNDEVWNLSNVQQGKYLCILKDVMEKLSTGVFRPQLDEPIPLYEAKVSMEAVQKNQGRKKQVVQF [CRYZL1] | 0.0481 | -1.74 | 57 | 56.9 | -0.249 | 0.11
MKGSRIELGDVTPHNIKQLKRLNQVIFPVSYNDKFYKDVLEVGELAKLAYFNDIAVGAVCCRVDHSQNQKRLYIMTLGCLAPYRRLGIGTKMLNHVLNICEKDGTFDNIYLHVQISNESAIDFYRKFGFEIIETKKNYYKRIEPADAHVLQKNLKVPSGQNADVQKTDN [NAA50] | 0.726 | -0.495 | 53.1 | 53.8 | -0.0822 | 0.325
MKIFVGNVDGADTTPEELAALFAPYGTVMSCAVMKQFAFVHMRENAGALRAIEALHGHELRPGRALVVEMSRPRPLNTWKIFVGNVSAACTSQELRSLFERRGRVIECDVVKDYAFVHMEKEADAKAAIAQLNGKEVKGKRINVELSTKGQKKGPGLAVQSGDKTKKPGAGDTAFPGTGGFSATFDYQQAFGNSTGGFDGQARQPTPPFFGRDRSPLRRSPPRASYVAPLTAQPATYRAQPSVSLGAAYRAQPSASLGVGYRTQPMTAQAASYRAQPSVSLGAPYRGQLASPSSQSAAASSLGPYGGAQPSASALSSYGGQAAAASSLNSYGAQGSSLASYGNQPSSYGAQAASSYGVRAAASSYNTQGAASSLGSYGAQAASYGAQSAASSLAYGAQAASYNAQPSASYNAQSAPYAAQQAASYSSQPAAYVAQPATAAAYASQPAAYAAQATTPMAGSYGAQPVVQTQLNSYGAQASMGLSGSYGAQSAAAATGSYGAAAAYGAQPSATLAAPYRTQSSASLAASYAAQQHPQAAASYRGQPGNAYDGAGQPSAAYLSMSQGAVANANSTPPPYERTRLSPPRASYDDPYKKAVAMSKRYGSDRRLAELSDYRRLSESQLSFRRSPTKSSLDYRRLPDAHSDYARYSGSYNDYLRAAQMHSGYQRRM [RBM14] | 1.48 | 2.24 | 47.3 | 46.1 | 0.332 | -0.765
